“And” between values parts separate entries of the source, which are not always exact repeats. Identical values can stand only once.

Some targets named below: 2RLCAPLRK2…2APGTFSN; CDQVETQA2…2TSTSPTRC; CG2RL2APLRK2…2RLC; CQA2TREQNRI2T2…2TSTSPTRC; NRI2…2R; NWVPE2…2; PE2LS2…2RPG; PE2LS2…2…2; PE2LSCGSR2…2T; WNWVPE2…2T2; …2RPGW; …2RPG; …2…2R.
Holding throughout (test): peptide-array ELISA [Con't]
Background: In an ELISA, binding on a coated surface is turned into a signal by an enzyme label.

The target of test [1] is CG2RL2APLRK2RPGFCQA2TREQNRI2T2RPC.
The target in test [2] is DVV2….
Test [3] deals with EGCRL2….
For test [4], the target named is LWNWVPE2….
Test [5] concerns the target NWVPE2….
Test [6] concerns the target WY2….
For test [7], the target named is Y2….
The target of test [8] is …2AGGSGGL2….
Test [9] addresses …2GGSGGL2….

…2RPG, sequence (peptide, as listed by the source): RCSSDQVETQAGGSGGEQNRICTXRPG
NWVPE2…, sequence (peptide, as listed by the source): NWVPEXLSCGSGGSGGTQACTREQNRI
EGCRL2…, sequence (peptide, as listed by the source): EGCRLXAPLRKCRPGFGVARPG
Y2…, sequence (peptide, as listed by the source): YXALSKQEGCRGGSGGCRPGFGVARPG
WY2…, sequence (peptide, as listed by the source): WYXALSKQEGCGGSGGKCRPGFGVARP
LWNWVPE2…, sequence (peptide, as listed by the source): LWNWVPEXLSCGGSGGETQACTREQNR

Turning to agonistic TNFR2 antibody MR2-1, the Raw luminescence data with 2RLCAPLRK2…2APGTFSN was 245; with CDQVETQA2…2TSTSPTRC, 251; in [1], 244; in the test with CG2RL2APLRK2…2RLC, 252; with CQA2TREQNRI2T2…2TSTSPTRC, 274; in test [2] it was 243. Also, the Raw luminescence data amounted to 239 in test [3]; 260 in [4]; 229 in the test with NRI2…2R; 258 with NWVPE2…2; 229 in test [5]; 277 with PE2LS2…2RPG. The Raw luminescence data with PE2LS2…2…2 turned out to be 262; in the test with PE2LSCGSR2…2T, 275; in the test with WNWVPE2…2T2, 247; in test [6] it was 254; in test [7], 256; in test [8], 254. In addition, the Raw luminescence data in [9] is 250; with …2RPGW, 276 and 272; with …2RPG, 257; with …2…2R it was 225.

The values above are taken from US20250243290A1.
